Measurements taken from patent US6905817B1, “Ret-independent signaling pathway for GDNF” (Licestia Ltd., priority 1998, dated 2005).
Entries after “also recorded” stand apart in the source; their conditions may differ.

How the values were obtained:
[1] = system: GFRα1-associated Src kinases; assay: In vitro kinase assay on anti-GFRα1 immunoprecipitate from Ret^−/− DRG neurons; type: cell-based, mouse; settings: GDNF 100 ng/ml, 5 min; Triton X-100 insoluble fraction
Experimental: DRG neurons (5×10^5), SHEP neuroblastoma cells (10^7), Neuro2A neuroblastoma cells stably transfected with GFRα1 (10^7) or NIH3T3 cells (NIH3T3/pBpGFRα1) stably transfected with GFRα1 (10^7) were incubated in serum-free culture medium without (control) or with GDNF (GDNF-treated) for 0.5-15 min at 37° C. The cells were washed twice with cold PBS/vanadate and lysed in TX-100 lysis buffer (50 mM Tris-HCl, pH 7.5, 150 mM NaCl, 5 mM EDTA, 1% Triton X-100, 1 mM sodium orthovanadate, 1 mM phenylmethylsulfonyl fluoride (PMSF) and protease inhibitors (Boehringer) on ice for 1 hour. The postnuclear lysates were pre-cleared by incubation with 50 μl of 50% Protein G-Sepharose for goat polyclonal antibodies or Protein A-Sepharose CL4B (Pharmacia) for rabbit polyclonal antibodies for 1 hour at +4° C. After removal of the beads, the supernatants were incubated with 0.4-0.5 μg of anti-GFRα1 or anti-Yes polyclonal antibodies (Santa Cruz Biotechnology) overnight at +4° C. followed by incubation with Protein G or A-Sepharose for 2 hours. The immunocomplexes were washed twice in TX-100 lysis buffer without EDTA and twice in kinase buffer (25 mM Hepes, pH 7.4, 5 mM MgCl2, 5 mM MnCl2, 1 mM sodium orthovanadate). […] Quantification of the optical density of the blots was performed using the TINA program.

Ret^−/− DRG neurons [2] = assay: GDNF-evoked [Ca^2+]i changes, confocal microscopy, Ret^−/− DRG neurons; type: cell-based, mouse
Experimental: DRG from embryonic day 18 (E18) mice were treated with trypsin (Worthington), non-neuronal cells removed by preplating, and about 95% pure neurons cultured on poly-ornithine-laminin-coated glass coverslips in Ham's F14 medium (Imperial Laboratories) with serum substitute containing NGF, BDNF and NT-3 (all from PeproTech, 2 ng/ml if each) for at least 1 day before measurement. Neurotrophins were extensively washed out before GDNF application. GDNF was from PeproTech and donated by Cephalon, Inc. Ret-deficient mice (Schuchardt et al., 1994) were identified from heterozygote matings by the absence of kidneys and PCR-based genotyping. GFRα2-deficient mice were obtained from homozygote matings (Rossi et al., 1999).
[Ca^2+]i was measured using a Bio-Rad MRC-1024 confocal microscope equipped with an argon-krypton laser. The cells were loaded with 10 μM Calcium Green-1AM (Molecular Probes), a membrane permeable Ca^2+ dye, by 30 min incubation in serum free cell-culture media at 37 ° C. and 5 % CO2. After loading, the neurons were kept at room temperature in Dulbecco's PBS solution contained 20 mM HEPES (pH=7.4) for at least 20 min prior to the experiments. All compounds were applied to the bath by a peristaltic pump. 6 kD Heparin (Sigma) and Alexa 568 nm fluorescent dye (Molecular Probes) were loaded into the cells using Molecular Probes' pinocytotic influx loading reagent basically according to the manufacturer instructions. […] Cell injection was performed using Eppendorf microinjection system. The average intensity of fluorescence in the predefined ROI (Region Of Interest) was measured on-line using TimeCourse software from BioRad. The calibration of fluorescence traces was performed in vitro using Fmax and Fmin values obtained with the calcium calibration buffer kit (Molecular Probes). Because the calibration solutions may not reflect the intracellular environment, the experimental data are presented as delta [Ca^2+]i calculated using Kd=190 nM for Calcium Green-1.

[3] = system: CREB-related protein ATF-1; assay: ATF-1 phosphorylation in SHEP cells; type: cell-based, human; settings: GDNF treatment
Experimental: (§1) To assess GDNF-dependent MAPK and CREB phosphorylation in all studied cell lines, the semiconfluent cell monolayers were starved for 3 hours in serum-free medium, and then GDNF was applied for the indicated time. For the analysis of MAPK and CREB activation in Ret^−/− animals the DRG neurons were dissected from E18 mice and maintained in NGF-containing medium for 2 hours. After this time the neurons were deprived of NGF by placing them in NGF-free medium in the presence of anti-NGF antibodies. After 2 hr without NGF, the neurons were stimulated with GDNF. In the experiments involving Src-kinase inhibition, a Src-family kinase inhibitor PP2 was added at the indicated concentrations to the cell monolayers 5 min before GDNF application. In some experiments 1 μg/ml of soluble GFRα1 lacking a GPI anchor (GFRα1/Fc chimeric protein; R&D systems) was added 5 min prior to the GDNF application and was kept in the solution during the GDNF treatment, After stimulation, the cells were briefly washed with PBS/sodium vanadate and lysed in the buffer containing TBS, 2 mM EDTA, 1% NP-40, 1% Triton X-100, 1 mM PMSF, 1 mM Na3VO4 and a Complete, protease inhibitors cocktail (Boehringer Mannheim). Total cell protein for each extract was measured by MicroBSA (Pierce) and an equivalent amount of protein was resolved electrophoretically on 10% polyacrylamide gels. […]

Ret^−/− DRG neurons [4] = assay: Survival of Ret^−/− DRG neurons in culture; type: cell-based, mouse; settings: unpublished observations and Taraviras et al., 1999
p42/p44 MAPK = assay: MAPK phosphorylation in NIH 3T3 fibroblasts stably transfected with GFRα1; type: cell-based; settings: GDNF 100 ng/ml
Experimental: as §1

CREB = CREB Ser-133 phosphorylation assay in SHEP cells; type: cell-based, human; settings: GDNF treatment
Experimental: as §1

JNK = JNK phosphorylation assay in SHEP cells; type: cell-based, human; settings: GDNF 100 ng/ml
Experimental: as §1

MAPK = MAPK phosphorylation in parental NIH3T3 fibroblasts lacking both Ret and GFRα1; type: cell-based; settings: GDNF 100 ng/ml alone
Experimental: as §1

p42/p44 MAP kinases = assay: MAPK phosphorylation assay in Ret^−/− DRG neurons; type: cell-based, mouse; settings: GDNF 100 ng/ml
Experimental: as §1

B1: Glial cell line—derived neurotrophic factor (protein, UniProt P39905 78-211, looked up)
Glial cell line-derived …: SPDKQMAVLPRRERNRQAAAANPENSRGKGRRGQRGKNRGCVLTAIHLNVTDLGLGYETKEELIFRYCSGSCDAAETTYDKILKNLSRNRRLVSDKVGQACCRPIAFDDDLSFLDDNLVYHILRKHSAKRCGCI
notes: TGF-β family-related neurotrophic protein; from PeproTech and donated by Cephalon, Inc
phosphoprotein in in vitro kinase assay of anti-GFRα1 precipitate [1]: revealed a major phosphoprotein of approximately 60 kD | Ret^−/− DRG neurons with long-lasting [Ca^2+]i elevation (Ret^−/− DRG neurons [2]; 10-100 ng/ml GDNF): 60-70% | change in [Ca^2+]i (Ret^−/− DRG neurons [2]; 10-100 ng/ml GDNF): long-lasting [Ca^2+]i elevation | fast [Ca^2+]i rise (Ret^−/− DRG neurons [2]; GDNF): never observed a GDNF-dependent fast [Ca^2+]i rise | change in [Ca^2+]i (calcium entry) (Ret^−/− DRG neurons [2]; GDNF 100 ng/ml in nominally Ca^2+ free external solution (about 20 μM)): evoked a massive [Ca^2+]i overshoot and substantially slower decay kinetics; also recorded: resulted in a profound increase in [Ca^2+]i | phosphorylation / activation of ATF-1 [3]: induced phosphorylation of the CREB-related protein ATF-1; also recorded: robust GDNF-dependent activation of the CREB-related protein ATF-1 | survival of Ret^−/− DRG neurons in culture (Ret^−/− DRG neurons [4]): not been shown to stimulate survival | phosphorylation of MAPK (p42/p44 MAPK): reproducibly increased phosphorylation of MAPK | phosphorylation of CREB in Ser-133 site (CREB): potently induced phosphorylation of CREB | JNK activation (phosphorylation) (JNK): did not evoke JNK activation; also recorded: did not affect the phosphorylation of JNK | MAPK phosphorylation (MAPK): did not evoke any MAPK phosphorylation | activation (phosphorylation) of MAPK (p42/p44 MAP kinases): several-fold rapid activation of MAPK
